{
  "source": "paper PMC3944234",
  "biological_target": "GAL4-Nef (HIV-1 Nef fused to the GAL4 DNA-binding domain) (HIV-1)",
  "test": "two-hybrid",
  "data": [
    {"substance": "VP16-eEF1A (eEF1A fused to the VP16 activation domain) (from UniProt P68104 1-462) (natural protein)", "values": [
      {"measurement": "relative luciferase expression", "result": 1850, "unit": "r.l.u."}
    ]}
  ]
}
